Results: the supplement of paper PMC12667976

B1: library; numbered along this chain (parent)
chain: MATDAALRRLLRLHRTEIAVAVDSAFPLLHALADHDVVPEDKFQETLHLKEKEGCPQAFHALLSWLLTQDSTAILDFWRVLFKDYNLERYGRLQPILDSFPKDVDLSQPRKGRKPPAVPKALVPPPRLPTKRKASEEARAAAPAALTPRGTASPGSQLKAKPPKKPESSAEQQRLPLGNGIQTMSASVQRAVAMSSGDVPGARGAVEGILIQQVFESGGSKKCIQVGGEFYTPSKFEDSGSGKNKARSSSGPKPLVRAKGAQGAAPGGGEARLGQQGSVPAPLALPSDPQLHQKNEDECAVCRDGGELICCDGCPRAFHLACLSPPLREIPSGTWRCSSCLQATVQEVQPRAEEPRPQEPPVETPLPPGLRSAGEEVRGPPGEPLAGMDTTLVYKHLPAPPSAAPLPGLDSSALHPLLCVGPEGQQNLAPGARCGVCGDGTDVLRCTHCAAAFHWRCHFPAGTSRPGTGLRCRSCSGDVTPAPVEGVLAPSPARLAPGPAKDDTASHEPALHRDDLESLLSEHTFDGILQWAIQSMARPAAPFPS

Variants of: B1
Experiment: AIRE transcriptional activation functional score (insulin promoter-GFP; nonsense median 0, synonymous median 1) (normalised score); higher = higher AIRE activity (more reporter activation)
Conditions: with insulin promoter-GFP reporter in HEK293
Method: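 Deep mutational scan of full-length human AIRE (codon-optimized cDNA, DT-POPCode NNN libraries over three regions) integrated at a Bxb1 landing pad in HEK293 cells carrying an insulin core promoter-GFP reporter at a Flp-In site. Cells were sorted for the top 10% GFP about 14 days after transfection. Variant frequency log-ratios (select vs non-select, TileSeq) were rescaled so that the nonsense median is 0 and the synonymous median is 1, then averaged over biological replicates.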

AIRE transcriptional activation functional score, by site and new letter:
S287: Q 1.24; N 1.13; M 1.29; Y 1.17; K 0.385; W 1.12; P 0.464; I 1.07; H 0.964; T 1.44; L 1.38; R 1.04; V 0.972
A300: G 0.768; W 1.22; I 1.11; T 0.981; N 0.883; F 1.57; E 0.84; Q 0.413; S 0.968; H 0.907; R 1.14; K 1.08; C 1.39; V 1.09; P 1.05; D 1.26; Y 0.856; L 0.917
K294: P 1.21; R 1.17; C 1; L 0.857; I 0.609; A 0.459; F 0.447; W -0.487; Q 1.43; M 0.969; S 0.706; G 0.728; E 0.357; T 0.822; N 0.937; H 0.554; Y 0.634; V 0.546
G305: A 0.453; C 1.06; E 0.782; D 1.1; F 0.497
Q293: E 1.33; R 0.982; M 0.829; Y 0.958; P 0.602; C 0.906; S 0.559; I 0.523; T -0.386; L 1.08; W 1.35; V 0.932; K 1.16; H 1.18; N 0.746; F 1.1; D 0.479; A 0.738; G 1
R303: P 1.09; S 0.997; I 1.32; G 1.34; W 1.02; Q 1.23; M 1.28; L 1.12; N 1.04; C 1.23; A 0.349; H 1.12; D 0.544; K 1.13; V 1.16; F 1.47; T 1.36; E 0.933; Y 0.774
D288: M 1.31; F 1.5; L 1.19; I 1.38; C 1.26; N 0.786; G 1.14; Y 1.23; H 0.855; A 1.19; E 0.565; P 1.15; K 0.535; V 1.14; S 1.24; Q 0.949; T 0.903; R 1.08; W 1.59
E298: N 1.56; W 1.13; Y 0.785; M 0.204; S 0.818; V 0.91; G 1.13; F 0.727; R 0.634; T 0.228; I 1.03; K 1.07; A 0.0161; H -2.02; Q 1.15; D 0.987; L 0.839; C -0.0529; P 0.696
E296: K 0.642; F 1.09; M 1.14; V 0.556; A 0.699; D 0.711; W 1.44; G 1.03; R 0.658; Y 0.486; N 1.28; P 0.799; C 0.394; I 0.711; T 0.948; S 0.991; L 0.781; H 1.76; Q 1.06
D297: H 0.894; K 1.49; R 0.34; Y 0.771; V 0.909; Q 1.32; C 0.929; L 0.697; F 0.8; E 0.884; T 0.153; G 0.852; W 0.671; S 0.838; A 0.963; M 0.682; P 1.29; I 0.487; N 0.25
D304: E 0.883; K 1.11; L 0.299; F 0.0957; C 1.29; Y 0.808; R 0.879; N 0.503; W 1.21; M 1.31; I 0.384; P 0.387; H 1.13; S 1.42; G 0.56; A 0.858; V 0.99; T 1.15
Q290: I 0.465; S 0.97; P 0.267; N 1.19; A 0.939; H 0.981; L 0.646; W 1.1; Y 1.48; F 1.21; K 0.932; V 1.04; C 0.819; E 0.67; M 1.27; R 1.2; T 0.55; G 1.02
H292: T 1.13; N 1.03; W 1.03; Y 0.957; V 0.936; A 0.816; I 0.603; Q 0.508; F 0.915; G 1.12; M 1.7; S 0.599; R 0.856; C 0.815; L 0.55; P 0.865; E -0.172; D 0.892; K 0.992
P289: C 1.08; T 1.37; N 0.167; A 0.95; F 0.919; K 1.39; Q 0.942; V 1.09; R 1.19; D -0.468; L 0.891; M 1.35; S 1.3; G 1.14; E 0.531; H 1.22; W 1.43
N295: A 0.906; H 0.879; T 1.14; L 1.17; V 1.09; G 0.969; I 0.856; K 1.03; S 0.92; D 0.921; W 0.869; E 1.27; Y 1.08; Q 0.995; R 0.795; F 0.892; P 1.05; C 1.01; M -0.37
V301: N 0.743; H 1.56; A 1.01; K 1.09; D 0.644; Q 1.08; E 1.05; S 1; M 0.84; C 1.08; I 0.84; R 1.34; L 1.01; T 0.963; G 1.08; P 0.662; F 1.29; Y 1.14; W 2
C302: Q 0.705; T 0.263; R 0.411; P 0.251; H 0.701; W 0.72; Y 0.467; F 0.63; D 0.537; E 0.654; N 0.531; S 0.665; V 0.651; K 0.3; L 0.555; G 0.54; I 0.572; A 0.669
L291: T 0.708; S 1.1; K 0.675; G 1.06; R 0.656; W 0.706; A 0.566; N 0.0689; Y 1.69; V 1.03; H 0.333; Q 0.902; F 1.15; M 1.29; P 1.26; E 0.759; D 0.351; C 1.01; I 0.864
C299: A 0.615; R 0.523; G 0.55; D 0.505; P 0.634; T 0.711; M 0.737; K 0.668; E 0.32; H 0.488; I 0.55; Y 0.416; S 0.703; F 0.664; N 0.262; L 0.726; V 0.501; Q 0.508; W 0.647
